*1 amine or outer side, *2 acyl side, *3 side chain or, on linkers, in order; H or OH if unused. Bridges are numbered along the chain shown (N, C = ends). Side-chain parts run from the residue outwards. [ ]: non-standard residue; d: D form. The star is where a group is joined. γGlu = O=C(O)[C@H](CCC(=O)[*:2])N[*:1]; Palmitoyl = CCCCCCCCCCCCCCCC(=O)*; Octanoyl = CCCCCCCC(=O)*; Dap = NC[C@H](N)C(=O)O; Octyl = CCCCCCCC*
B1: H-PS-S(O-octyl)-FLSPEHQRVQRKESKKPPAKLQPR-NH2 (peptide)
peptide: H-PSS(Octyl)FLSPEHQRVQRKESKKPPAKLQPR-NH2
SMILES: CCCCCCCCOC[C@H](NC(=O)[C@H](CO)NC(=O)[C@@H]1CCCN1)C(=O)N[C@@H](Cc1ccccc1)C(=O)N[C@@H](CC(C)C)C(=O)N[C@@H](CO)C(=O)N1CCC[C@H]1C(=O)N[C@@H](CCC(=O)O)C(=O)N[C@@H](Cc1c[nH]cn1)C(=O)N[C@@H](CCC(N)=O)C(=O)N[C@@H](CCCNC(=N)N)C(=O)N[C@H](C(=O)N[C@@H](CCC(N)=O)C(=O)N[C@@H](CCCNC(=N)N)C(=O)N[C@@H](CCCCN)C(=O)N[C@@H](CCC(=O)O)C(=O)N[C@@H](CO)C(=O)N[C@@H](CCCCN)C(=O)N[C@@H](CCCCN)C(=O)N1CCC[C@H]1C(=O)N1CCC[C@H]1C(=O)N[C@@H](C)C(=O)N[C@@H](CCCCN)C(=O)N[C@@H](CC(C)C)C(=O)N[C@@H](CCC(N)=O)C(=O)N1CCC[C@H]1C(=O)N[C@@H](CCCNC(=N)N)C(N)=O)C(C)C
B2: H-PS-S(O-octyl)-FLSPEHE()RVQK()RKESKKPPAKLQPR-NH2 (peptide)
peptide: H-PSS(Octyl)FLSPEHERVQKRKESKKPPAKLQPR-NH2
modifications: lactam 10-14
SMILES: CCCCCCCCOC[C@H](NC(=O)[C@H](CO)NC(=O)[C@@H]1CCCN1)C(=O)N[C@@H](Cc1ccccc1)C(=O)N[C@@H](CC(C)C)C(=O)N[C@@H](CO)C(=O)N1CCC[C@H]1C(=O)N[C@@H](CCC(=O)O)C(=O)N[C@@H](Cc1c[nH]cn1)C(=O)N[C@H]1CCC(=O)NCCCC[C@@H](C(=O)N[C@@H](CCCNC(=N)N)C(=O)N[C@@H](CCCCN)C(=O)N[C@@H](CCC(=O)O)C(=O)N[C@@H](CO)C(=O)N[C@@H](CCCCN)C(=O)N[C@@H](CCCCN)C(=O)N2CCC[C@H]2C(=O)N2CCC[C@H]2C(=O)N[C@@H](C)C(=O)N[C@@H](CCCCN)C(=O)N[C@@H](CC(C)C)C(=O)N[C@@H](CCC(N)=O)C(=O)N2CCC[C@H]2C(=O)N[C@@H](CCCNC(=N)N)C(N)=O)NC(=O)[C@H](CCC(N)=O)NC(=O)[C@H](C(C)C)NC(=O)[C@H](CCCNC(=N)N)NC1=O
B3: H-GS-S(octanoyl)-FLSPEHE()RVQK()RKESKKPPAKLQPR-OH (peptide)
peptide: H-GSS(Octanoyl)FLSPEHERVQKRKESKKPPAKLQPR-OH
modifications: lactam 10-14
SMILES: CCCCCCCC(=O)OC[C@H](NC(=O)[C@H](CO)NC(=O)CN)C(=O)N[C@@H](Cc1ccccc1)C(=O)N[C@@H](CC(C)C)C(=O)N[C@@H](CO)C(=O)N1CCC[C@H]1C(=O)N[C@@H](CCC(=O)O)C(=O)N[C@@H](Cc1c[nH]cn1)C(=O)N[C@H]1CCC(=O)NCCCC[C@@H](C(=O)N[C@@H](CCCNC(=N)N)C(=O)N[C@@H](CCCCN)C(=O)N[C@@H](CCC(=O)O)C(=O)N[C@@H](CO)C(=O)N[C@@H](CCCCN)C(=O)N[C@@H](CCCCN)C(=O)N2CCC[C@H]2C(=O)N2CCC[C@H]2C(=O)N[C@@H](C)C(=O)N[C@@H](CCCCN)C(=O)N[C@@H](CC(C)C)C(=O)N[C@@H](CCC(N)=O)C(=O)N2CCC[C@H]2C(=O)N[C@@H](CCCNC(=N)N)C(=O)O)NC(=O)[C@H](CCC(N)=O)NC(=O)[C@H](C(C)C)NC(=O)[C@H](CCCNC(=N)N)NC1=O
B4: H-Orn-S(O-octyl)-FLSPEHQRVQQRKESKKPPAKLQPR-NH2 (peptide)
peptide: RSFLSPEHQRVQQRKESKKPPAKLQPR
modifications: N-terminal Orn (ornithine, stands for X1 and X2 together); next residue Ser(O-octyl) (position 3 of the formula); C-terminal amide (-NH2)
B5: H-GS-S(octanoyl)-FLSPEHQRVQQRK()ESKE()PPAKLQPR-OH (peptide)
peptide: H-GSS(Octanoyl)FLSPEHQRVQQRKESKEPPAKLQPR-OH
modifications: lactam 16-20
SMILES: CCCCCCCC(=O)OC[C@H](NC(=O)[C@H](CO)NC(=O)CN)C(=O)N[C@@H](Cc1ccccc1)C(=O)N[C@@H](CC(C)C)C(=O)N[C@@H](CO)C(=O)N1CCC[C@H]1C(=O)N[C@@H](CCC(=O)O)C(=O)N[C@@H](Cc1c[nH]cn1)C(=O)N[C@@H](CCC(N)=O)C(=O)N[C@@H](CCCNC(=N)N)C(=O)N[C@H](C(=O)N[C@@H](CCC(N)=O)C(=O)N[C@@H](CCC(N)=O)C(=O)N[C@@H](CCCNC(=N)N)C(=O)N[C@H]1CCCCNC(=O)CC[C@@H](C(=O)N2CCC[C@H]2C(=O)N2CCC[C@H]2C(=O)N[C@@H](C)C(=O)N[C@@H](CCCCN)C(=O)N[C@@H](CC(C)C)C(=O)N[C@@H](CCC(N)=O)C(=O)N2CCC[C@H]2C(=O)N[C@@H](CCCNC(=N)N)C(=O)O)NC(=O)[C@H](CCCCN)NC(=O)[C@H](CO)NC(=O)[C@H](CCC(=O)O)NC1=O)C(C)C
B6: H-PS-S(O-octyl)-FLSPEHQRVQQRKES-K(hexadecanoyl-isoGlu)-KPPAKLQPR-NH2 (peptide)
peptide: H-PSS(Octyl)FLSPEHQRVQQRKESK([γGlu-Palmitoyl])KPPAKLQPR-NH2
SMILES: CCCCCCCCCCCCCCCC(=O)N[C@@H](CCC(=O)NCCCC[C@H](NC(=O)[C@H](CO)NC(=O)[C@H](CCC(=O)O)NC(=O)[C@H](CCCCN)NC(=O)[C@H](CCCNC(=N)N)NC(=O)[C@H](CCC(N)=O)NC(=O)[C@H](CCC(N)=O)NC(=O)[C@@H](NC(=O)[C@H](CCCNC(=N)N)NC(=O)[C@H](CCC(N)=O)NC(=O)[C@H](Cc1c[nH]cn1)NC(=O)[C@H](CCC(=O)O)NC(=O)[C@@H]1CCCN1C(=O)[C@H](CO)NC(=O)[C@H](CC(C)C)NC(=O)[C@H](Cc1ccccc1)NC(=O)[C@H](COCCCCCCCC)NC(=O)[C@H](CO)NC(=O)[C@@H]1CCCN1)C(C)C)C(=O)N[C@@H](CCCCN)C(=O)N1CCC[C@H]1C(=O)N1CCC[C@H]1C(=O)N[C@@H](C)C(=O)N[C@@H](CCCCN)C(=O)N[C@@H](CC(C)C)C(=O)N[C@@H](CCC(N)=O)C(=O)N1CCC[C@H]1C(=O)N[C@@H](CCCNC(=N)N)C(N)=O)C(=O)O
B7: H-PS-Dap(N-octanoyl)-FLSPK-NH2 (peptide)
peptide: H-PS[Dap](Octanoyl)FLSPK-NH2
SMILES: CCCCCCCC(=O)NC[C@H](NC(=O)[C@H](CO)NC(=O)[C@@H]1CCCN1)C(=O)N[C@@H](Cc1ccccc1)C(=O)N[C@@H](CC(C)C)C(=O)N[C@@H](CO)C(=O)N1CCC[C@H]1C(=O)N[C@@H](CCCCN)C(N)=O
B8: H-PS-Dap(N-octanoyl)-FLSPY-NH2 (peptide)
peptide: H-PS[Dap](Octanoyl)FLSPY-NH2
SMILES: CCCCCCCC(=O)NC[C@H](NC(=O)[C@H](CO)NC(=O)[C@@H]1CCCN1)C(=O)N[C@@H](Cc1ccccc1)C(=O)N[C@@H](CC(C)C)C(=O)N[C@@H](CO)C(=O)N1CCC[C@H]1C(=O)N[C@@H](Cc1ccc(O)cc1)C(N)=O
B9: H-GS-S(octanoyl)-FLSPE()HQRK()QQRKESKKPPAKLQPR-OH (peptide)
peptide: H-GSS(Octanoyl)FLSPEHQRKQQRKESKKPPAKLQPR-OH
modifications: lactam 8-12
SMILES: CCCCCCCC(=O)OC[C@H](NC(=O)[C@H](CO)NC(=O)CN)C(=O)N[C@@H](Cc1ccccc1)C(=O)N[C@@H](CC(C)C)C(=O)N[C@@H](CO)C(=O)N1CCC[C@H]1C(=O)N[C@H]1CCC(=O)NCCCC[C@@H](C(=O)N[C@@H](CCC(N)=O)C(=O)N[C@@H](CCC(N)=O)C(=O)N[C@@H](CCCNC(=N)N)C(=O)N[C@@H](CCCCN)C(=O)N[C@@H](CCC(=O)O)C(=O)N[C@@H](CO)C(=O)N[C@@H](CCCCN)C(=O)N[C@@H](CCCCN)C(=O)N2CCC[C@H]2C(=O)N2CCC[C@H]2C(=O)N[C@@H](C)C(=O)N[C@@H](CCCCN)C(=O)N[C@@H](CC(C)C)C(=O)N[C@@H](CCC(N)=O)C(=O)N2CCC[C@H]2C(=O)N[C@@H](CCCNC(=N)N)C(=O)O)NC(=O)[C@H](CCCNC(=N)N)NC(=O)[C@H](CCC(N)=O)NC(=O)[C@H](Cc2c[nH]cn2)NC1=O
B10: H-PS-S(O-octyl)-FLSPE()HQRK()QQRKESKKPPAKLQPR-NH2 (peptide)
peptide: H-PSS(Octyl)FLSPEHQRKQQRKESKKPPAKLQPR-NH2
modifications: lactam 8-12
SMILES: CCCCCCCCOC[C@H](NC(=O)[C@H](CO)NC(=O)[C@@H]1CCCN1)C(=O)N[C@@H](Cc1ccccc1)C(=O)N[C@@H](CC(C)C)C(=O)N[C@@H](CO)C(=O)N1CCC[C@H]1C(=O)N[C@H]1CCC(=O)NCCCC[C@@H](C(=O)N[C@@H](CCC(N)=O)C(=O)N[C@@H](CCC(N)=O)C(=O)N[C@@H](CCCNC(=N)N)C(=O)N[C@@H](CCCCN)C(=O)N[C@@H](CCC(=O)O)C(=O)N[C@@H](CO)C(=O)N[C@@H](CCCCN)C(=O)N[C@@H](CCCCN)C(=O)N2CCC[C@H]2C(=O)N2CCC[C@H]2C(=O)N[C@@H](C)C(=O)N[C@@H](CCCCN)C(=O)N[C@@H](CC(C)C)C(=O)N[C@@H](CCC(N)=O)C(=O)N2CCC[C@H]2C(=O)N[C@@H](CCCNC(=N)N)C(N)=O)NC(=O)[C@H](CCCNC(=N)N)NC(=O)[C@H](CCC(N)=O)NC(=O)[C@H](Cc2c[nH]cn2)NC1=O
B11: H-PS-S(O-octyl)-FLSPK-NH2 (peptide)
peptide: H-PSS(Octyl)FLSPK-NH2
SMILES: CCCCCCCCOC[C@H](NC(=O)[C@H](CO)NC(=O)[C@@H]1CCCN1)C(=O)N[C@@H](Cc1ccccc1)C(=O)N[C@@H](CC(C)C)C(=O)N[C@@H](CO)C(=O)N1CCC[C@H]1C(=O)N[C@@H](CCCCN)C(N)=O
B12: Ac-Orn-S(O-octyl)-FLSPEHQRVQQRKESKKPPAKLQPR-NH2 (peptide)
peptide: RSFLSPEHQRVQQRKESKKPPAKLQPR
modifications: N-terminal Ac-Orn (acetylated ornithine, stands for X1 and X2 together); next residue Ser(O-octyl) (position 3 of the formula); C-terminal amide (-NH2)

Each binder was assayed against human growth hormone secretagogue receptor type 1a (human, UniProt Q92847 1-366) (assay: cell-based or functional assay).
Chain of human growth hormone secretagogue receptor type 1a (Q92847 whole entry): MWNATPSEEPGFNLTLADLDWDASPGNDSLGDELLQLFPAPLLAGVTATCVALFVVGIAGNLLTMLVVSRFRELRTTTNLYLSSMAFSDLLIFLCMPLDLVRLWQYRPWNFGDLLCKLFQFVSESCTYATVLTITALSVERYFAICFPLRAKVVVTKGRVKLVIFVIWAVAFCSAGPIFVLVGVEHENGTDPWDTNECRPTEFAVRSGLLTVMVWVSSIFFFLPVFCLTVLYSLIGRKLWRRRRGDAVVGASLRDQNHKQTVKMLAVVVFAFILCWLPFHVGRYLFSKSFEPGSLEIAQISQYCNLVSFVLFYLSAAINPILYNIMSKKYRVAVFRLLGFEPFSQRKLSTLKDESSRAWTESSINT

EC50 (nM); Ca2+ induction in HEK293 cells stably expressing the human ghrelin receptor [nM]	Binder
0.33	B1
0.432	H-PS[NH‑CH(n-C10H21)‑C(O)]FLSPK-NH2 [H-PS-[NH-CH(n-C10H21)-C(O)]-FLSPK-NH2]
0.155	B2
0.597	B3
0.253	H-PS[Dap](Octanoyl)FLSPEHQRVQRKESKKPPAKLQPR-NH2 [H-PS-Dap(N-octanoyl)-FLSPEHQRVQRKESKKPPAKLQPR-NH2]
0.527	B4
1.29	B5
0.496	B6
0.364	B7
0.195	B8
> 1000	H-GSSFLSPEHQKAQQRKESKKPPAKLQPR-OH [rat ghrelin without octanoyl moiety at position 3]
0.534	B9
0.365	B10
0.388	B11
1.4	B12

Reference: patent publication US9657062B2, “Ghrelin analogues” (Zealand Pharma A/S, priority 2012, dated 2017)
